Experimental data as given in the nanobody polyreactivity screen of Harvey et al. (2022).

Experiment: yeast display, Sf9 membrane polyspecificity reagent, FACS + sequencing; frameworks hold sequencing errors
Summary of the method: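 Synthetic nanobody libraries on Saccharomyces cerevisiae BJ5465 were galactose-induced for 36–48 hours, stained 1 hour at 4 °C with 10% biotinylated, detergent-solubilized Sf9 membrane reagent and enriched on streptavidin microbeads. FACS then separated cells into low and high (top ~1%) gates by anti-HA (expression) and streptavidin (reagent binding) fluorescence. Genes were colony-PCR amplified, MiSeq 2 × 250 sequenced and CDR-length filtered. A clone's polyreactivity label is that of its gate of origin.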
In the case of “QVQLVESGGGLVQAGGSLRLSCAASGFTFRYYAMGWYRPAPGKERELVAAISWSGGSTYYADSVKGRFTISRDNAKNTVYLQMYTLIPEDTAVYDCNAAWPGYISNRLGYDYWGQGTQVTVSS”, the “polyreactivity (PSR sort gate)” value is reported as “high polyreactivity”. In the case of “QVQLQESGGGLVQAGGNPRLSCAASGNSSWSAHMGWYRQTPGKERELVASNTAGTSTNYADSVKGRFTISRDNAKNTVYLQMNSLKPEDTAVSYCATLGYFSASRTDYDYWGQGTQVTVSS”, the “polyreactivity (PSR sort gate)” value is reported as “low polyreactivity”. With “QVQLVESGGGLVQAGGSLRLSCAASGSIFYTYVMGWYRQAPGKERELVAAITWSGGSTYYADSVKGRFTISRDNAKNTVYLQMNSLKPEDTAVYYCAAVRGYRSSKYDYWGQGTQVTVSS” the “polyreactivity (PSR sort gate)” value was “high polyreactivity”. For “QVQLVETGAGIVQAGGILRLSCAASGSIFQGNAIGWYRQAPGKERELVAAISGGTSTYYADSEKGRFTISRDNAKNTVYLEMNSLKPEDTAVYYCAARFYGHPYWYDYWGLGTQVTVSS”, the “polyreactivity (PSR sort gate)” value was “low polyreactivity”. With “QVQLQESGAGLEQAGGSLRMSCAASGYSSDIGTMGWYRQAPGKEREFVATIVVGSTTNYADSVKGRFTISRDNAKNTVYLQPESGRYRGVLLRGWLLAVGKFTYWGQGTQETVSS” the “polyreactivity (PSR sort gate)” value was “low polyreactivity”. For “QVQLVESGGRIVQAGGSLRLICAASGRIFVRNAMGWYRQAPGKERELVAAITTSGGRTYYADSVKGRFTISRDNAKNTVYLQMNSLKPEDTAVYYCAADTRYRNYPYYYWGQGTQVTVSS”, the “polyreactivity (PSR sort gate)” value was “high polyreactivity”. For “QVQLVESGGGIVQAGGSLRLSCAASGSTFSSYAMGWYRQAPGKERELVAGITNSGGSTYYADSVKGRFTISRDNAKNTVYLQMNSLKPEDTAVYYCAAFPRTYSGYYYWGQGTQVTVSS”, the “polyreactivity (PSR sort gate)” value was “high polyreactivity”. For “QVQLVESGGGLVQAGGSLRLSCAASGFTFGYYAMGWYRPAPGKERELVAGISSSGSRTYYADSVKGRFTISRDNAKNTVYLQMNSLKPEDTAVYYCNKYYSGKSYTGEDYWGQGTQVTVSS”, the “polyreactivity (PSR sort gate)” value was “high polyreactivity”. In the case of “QVQLVESGGGLVQAGGSLRLSCAASGFTFYYYAMGWYRQAPGKERELVAAISRGGGNTYYADSVKGRFTISRDNAKNTVYLQMNSLKPEDTAVYYCAARRPVYRIYGDRGRWYNYWGQGTQVTVSS”, the “polyreactivity (PSR sort gate)” value is reported as “high polyreactivity”. For “QVQLVESGGGLVQAGGSLRLSCAASGRIFSTNAMGWYRQAPGTERELVAAISRRGASTYYADSVKGRFTISRDNAKNTVYLQMNSLKPEDTAVYYCAAVIGTGGRYNYWGQGTQVTVSS”, the “polyreactivity (PSR sort gate)” value was “high polyreactivity”. With “QVQLVESGGGLVQAGGSLRLSCAASGSTFNLYAMGWYRQAPGKERELVASISRSGVSTYYADSVKGRFTISRDNAKNTVYLQMNSLKPEDTAVYYCAVDKVLYRLYTGMDYWGQGTQVTVSS” the “polyreactivity (PSR sort gate)” value was “low polyreactivity”. For “QVQLVETGGGLVQAGGSLRLSCAASGRTIGFYAMGWYRQAPGKERELVAAINRSGDSTYYADSVKGRFTISRDNAKNTVYLHMNSLKPEDTAVYYCAARRSTGYGYWGQGTQVTVSS”, the “polyreactivity (PSR sort gate)” value was “high polyreactivity”. In the case of “QVQLVESGGGLVQAGGSLRLSCAASGSTFVSYAMGWYRQAPGKESELVAGISWSGTRTYYADSVKGRFTISRDNAKNTVYLQMNSLKPEDTAVYYCAARDSSYNWYGYWGQGTQVTVSS”, the “polyreactivity (PSR sort gate)” value is reported as “high polyreactivity”. With “QVQLVESGGGLVQAGGSLRLICAASGSTIVYYAMAWYRQAPGKERELVAAISRVGSTNYADSVKGRFTISRDNAKNTVYLQMNSLKPEDTAVYYCNAERSRRYSGWVNYAPLNYWGQGTQVTVSS” the “polyreactivity (PSR sort gate)” value was “low polyreactivity”. In the case of “QVQLVESCGGLVQAGGSLRLSCAASGSTFINYAMGWYRQAPGKERELVAAYAYSVKGRFTISRDNAKITVYLQMKSLKPEDTAVYYCNAVTGDWGQGTQVTVSS”, the “polyreactivity (PSR sort gate)” value is reported as “low polyreactivity”. For “QVQLVESGGGLVQAGGSLRLSCAASGSILQPIYAMGWYRQAPGKERELVAAISASGGSTYYADSVKGRFTISRDNAKNTVYLQMNSLKPEDTAVYYCNKVGYYASVLGYDYWGQGTQVTVSS”, the “polyreactivity (PSR sort gate)” value was “high polyreactivity”. With “QVQLVESGGGLVQAGGSLRVSCAASGSTFYEYAMGWYRQAPGKERELVAAITRGGTTYYADSVKGRFTISRDNAKNTDYYQMNSLKPEDTAVYYCAARTRGFTKLGYWGQGTQVTVSS” the “polyreactivity (PSR sort gate)” value was “high polyreactivity”. With “QVQLVESGGGLVQAGGSLRLSCAASGFTFKRYAMGWYRQAPGKERELVAAITGSGGSTYYADSVKGRFTISRDNAKNTVYLQMNSLKPEDTAVYYCAKKRIYWSGRPTIGTYIMGYWGQGTQVTVSS” the “polyreactivity (PSR sort gate)” value was “high polyreactivity”. For “QVQLVESGGGLVQAGGSLRLSCAASGSIYSYTMGWYRQAPGKEKELVAAITYSGDSTYYADSVKGRFTISRDNAKNTVYLQMNSLKPDDTAVYYCAKSGTLSEYDYWGQGTQVTVSS”, the “polyreactivity (PSR sort gate)” value was “low polyreactivity”. In the case of “QVQLVESGGGLVQAGGSLRLSCAASGRTFPVNAMGWYRQAPGKEREFVAVISSTGTTYYADSVKGRFTISLDNAKITVYLQMNSLKPEDTAVYYCARRSNRRAYVNRVGVLRTVDYWGQGTQVTVSS”, the “polyreactivity (PSR sort gate)” value is reported as “low polyreactivity”. For “QVQLQESGGGLVQARGSLRLSSAASGYISYLDFMGWYGQAPGKERELVAGITTGATTNYADSVKGRFTISRDNAKNIVYQQINSLKQEDTAVYYCARGTEVKSGISYRFYYWGQGTQVTVSS”, the “polyreactivity (PSR sort gate)” value was “low polyreactivity”. With “QVQLVESGGGLVQAGGSLRLRCAASGFTIGANTMGWYRQAPGKEWELVASISASGGSTYYADSVKGRVTISRDNAKNTVYVQMNSLKPDDTAGYYCAARRYPGRTATYYSWGQGTQVTVSS” the “polyreactivity (PSR sort gate)” value was “high polyreactivity”. For “QVQLVESGGGLVQAGGTLRLSCAASGLIFVRYAMGWYRQAPGKERELVATITDGGSKYYADSVKGRFTISRDNAKNTVYLQMNSLKPEDTAVYYCNKDRVSVRYEYWGQGTQVTVSS”, the “polyreactivity (PSR sort gate)” value was “low polyreactivity”. With “QVQLVESGGGLVQAGGSLRLSCAASGFIFWYYGMGWYRQAPGKERELVAAINWSGTSTNYADSVKGRFTISRDNAKNTVYLQMNSLKPEDTAVYYCAAEYWYTYSWGQGTQVTVLS” the “polyreactivity (PSR sort gate)” value was “low polyreactivity”. In the case of “QVQLVESGGGLVQAGGSLRLSCAASGSIVDNRGWYRQAPGKERELVAAISSSGDSTYYADSVKGRFTISRDNAKNTVYLQMNSLKPEDTAVYYCAADFYYYKKQYDYWGQGTQVTVSS”, the “polyreactivity (PSR sort gate)” value is reported as “low polyreactivity”. In the case of “QVQLVESGGGLVQAGGSLRLSCAPSGRIIFYNAMGWYRQAPGKERELVAAISIGGRTYYADSVKGRFTISRDNAKNTVYLQMNSLKPEDTAVYYCAALGYPYLRSGYWGQGTQVTVSS”, the “polyreactivity (PSR sort gate)” value is reported as “high polyreactivity”. With “QVQLVESGGGLVQAGGSLRLSCAASGRSFGKNAMGWYRQAPGKERELVAAISTSGGRTYYADSVKGRFTISRDNAKITFFLQMNSLKPEDTAVYYCNAKGWTRPPGYDYWGQGTQVTVSS” the “polyreactivity (PSR sort gate)” value was “high polyreactivity”. In the case of “QVQLVESGGGLVQAGGSLRLSCAASGRNFKYNAMGSYRTAPGKERELVAAISSGGSTKYADSVKGRFTISRDNATKTVYLQMNSLKPEDTAVYYCNAVYTPYRRSFYYWGQGTQVTVSS”, the “polyreactivity (PSR sort gate)” value is reported as “high polyreactivity”. With “HVQLEESGGGLDQAGGSLRLSCAASGITFVRNAMGWYRQAPGKERELVAVITSGGGTYYADSVKGRFTISRDNAKNTVYLQMNSLKPEDTAVYYWAGDIHVNGSGYWGKGTQVTVSS” the “polyreactivity (PSR sort gate)” value was “low polyreactivity”. For “QVQLVESGGGLLQAGGSLRLSCAASGITFYRNAMGWYRQAPGKERELVAAITWSGGSTYYADSVKGRFTISRDYAKNTVYLQMNSLKPEDSAVYYCNADYRHRYYWGQGTQVTVSS”, the “polyreactivity (PSR sort gate)” value was “high polyreactivity”. With “QVQLVESGGGLVQAGGSLRLSSAASGRIFPGYAMGWYRQAPGKEREFVAAITRSGGRTYYADSVKGRFTISRDNAKNTVYVQMNSLKPEDTAVYYCNRVYEYWSEYDYWGQGTQVTVSS” the “polyreactivity (PSR sort gate)” value was “high polyreactivity”. In the case of “QVQLVESGGGLVQAGGSLLLSCAASGRTFTGYAMGGYRQAPVKERELVAAISASGGSTYYADSVKGRFTISRDNAKNTVYLQMNSLIPEDTAVYYCAAETWYSVLWEEGYDYWGQGTQVTVSS”, the “polyreactivity (PSR sort gate)” value is reported as “low polyreactivity”.
